Results published in patent publication US7803921B2, “Sulfotransferase 1E1 sequence variants” (Mayo Foundation for Medical Education and Research, priority 2002, dated 2010).
Positions count from the first letter of the chain named. Marks after values point to notes of the source that are not given here.

B1: Ala32Val: SULT1E1 allozyme with valine in place of alanine at residue 32 (thymine at nucleotide 95) (protein, UniProt P49888 1-294, looked up, variant A32V)
Sulfotransferase 1E1: MNSELDYYEKFEEVHGILMYKDFVKYWDNVEVFQARPDDLVIATYPKSGTTWVSEIVYMIYKEGDVEKCKEDVIFNRIPFLECRKENLMNGVKQLDEMNSPRIVKTHLPPELLPASFWEKDCKIIYLCRNAKDVAVSFYYFFLMVAGHPNPGSFPEFVEKFMQGQVPYGSWYKHVKSWWEKGKSPRVLFLFYEDLKEDIRKEVIKLIHFLERKPSEELVDRIIHHTSFQEMKNNPSTNYTTLPDEIMNQKLSPFMRKGITGDWKNHFTVALNEKFDKHYEQQMKESTLKFRTEI
B2: Asp22Tyr: SULT1E1 allozyme with tyrosine in place of aspartic acid at residue 22 (thymine at nucleotide 64) (protein, UniProt P49888 1-294, looked up, variant D22Y)
Sulfotransferase 1E1: B1 Sulfotransferase 1E1 with D22Y, V32A
B3: Pro253His: SULT1E1 allozyme with histidine in place of proline at residue 253 (adenine at nucleotide 758) (protein, UniProt P49888 1-294, looked up, variant P253H)
Sulfotransferase 1E1: B1 Sulfotransferase 1E1 with V32A, P253H
B4: Wild type: reference human SULT1E1 enzyme (SEQ ID NO:7, GenBank U08098), recombinantly expressed in COS-1 cells (protein, listed as Homo sapiens)
chain: B1 Sulfotransferase 1E1 with V32A

These molecules were tested on SULT1E1 (assay: Enzyme thermal stability (T50) of recombinant SULT1E1 allozymes). Conditions: in words.
Format: physicochemical, human
Method: Enzyme thermal stability was measured by diluting COS-1 cell supernatant preparations for each of the recombinant SULT1E1 allozymes and incubating them in a water bath for 15 minutes at temperatures ranging from 28° C. to 46° C. The samples were placed on ice immediately after incubation. Aliquots of the same supernatant preparations also were kept on ice as controls. Enzyme activity was measured in both heated and unheated samples, and blank values were determined for each temperature studied.
For B1, the “T50 value as compared to the wild-type enzyme” value was “reduced T50 values”.
For B2, the “T50 value as compared to the wild-type enzyme” value was “reduced T50 values”.

Same assay, conditions: temperature resulting in 50% thermal inactivation, 15 minutes at 28° C. to 46° C.; mean ± SEM (n = 3)
In the case of B1, the “Thermal Stability T50” value is reported as 36.7 ± 1.2 °C.
For B3, the “Thermal Stability T50” value was 38.4 ± 0.46 °C.
For B2, the “Thermal Stability T50” value was 35.0 ± 0.32^c ° C.
For B4, the “Thermal Stability T50” value was 38.5 ± 0.92 °C.

What follows are molecules tested on SULT1E1 (assay: SULT1E1 allozyme substrate kinetics (apparent Km, Vmax) with E2 and PAPS as cosubstrates). Conditions: 50 nM E2, PAPS 2.7 nM to 150 nM; mean ± SEM (n = 3).
Format: biochemical, human
Text: Other biochemical properties of allozymes, such as apparent Km values, also can be altered relative to the reference SULT1E1. Apparent Km values can be calculated, for example, by using the method of Wilkinson with a computer program written by Cleland. Wilkinson (1961) Biochem. J. 80:324-332 and Cleland (1963) Nature 198:463-365. As described herein, the apparent Km values for PAPS varied more than 3-fold among the allozymes tested (Asp22Tyr, Ala32Val, and Pro253His).
Apparent Km values for each allozyme were determined with both cosubstrates. Initial experiments used 10-fold serial dilutions of E2 that ranged from 10^−3 to 10^−9 M. Apparent Km values were calculated by using the method of Wilkinson with a computer program written by Cleland (see, Wilkinson (1961) Biochem J 80:324-332; and Cleland (1963) Nature 198:463-365). Maximal activity for all allozymes was found at E2 concentrations near 100 nM. A second set of experiments was performed in the presence of 0.4 μM PAPS using eight concentrations of E2 that varied from 3.1 nM to 400 nM.
In the case of B1, the “Vmax, PAPS as Varied Substrate” value is reported as 5.7 ± 0.1^a nmol/hr/β-galactosidase units.
With B3 the “Vmax, PAPS as Varied Substrate” value was 34.8 ± 0.2^a nmol/hr/β-galactosidase units.
With B2 the “Vmax, PAPS as Varied Substrate” value was 1.9 ± 0.1^a nmol/hr/β-galactosidase units.
For B4, the “Vmax, PAPS as Varied Substrate” value was 27.2 ± 0.7^a nmol/hr/β-galactosidase units.

Same assay, conditions: 50 nM E2, PAPS 2.7 nM to 150 nM; mean ± SEM (n = 3); read-out: Apparent Km, PAPS as Varied Substrate
In the case of B1, the Km is reported as 0.065 ± 0.0042 µM.
In the case of B3, the Km is reported as 0.18 ± 0.0075 µM.
Work on B2 yielded a Km of 0.24 ± 0.0092 µM.
B4 was tested, and the Km was 0.056 ± 0.0029 µM.

Same assay, conditions: 0.4 μM PAPS, E2 3.1 nM to 400 nM; mean ± SEM (n = 3)
With B1 the “Vmax, E2 as Varied Substrate” value was 22.8 ± 6.6 nmol/hr/β-galactosidase units.
B3 was tested, and the “Vmax, E2 as Varied Substrate” value was 58.6 ± 2.5^b nmol/hr/β-galactosidase units.
In the case of B2, the “Vmax, E2 as Varied Substrate” value is reported as 4.7 ± 0.3^b nmol/hr/β-galactosidase units.
In the case of B4, the “Vmax, E2 as Varied Substrate” value is reported as 26.8 ± 4.4 nmol/hr/β-galactosidase units.

Same assay, conditions: 0.4 μM PAPS, E2 3.1 nM to 400 nM; mean ± SEM (n = 3); read-out: Apparent Km, E2 as Varied Substrate
Work on B1 yielded a Km of 0.044 ± 0.005 µM.
B3 showed a Km of 0.097 ± 0.007 µM.
B2 gave a Km of 0.22 ± 0.03 µM.
For B4, the Km was 0.03 ± 0.005 µM.

Same assay, conditions: PAPS as substrate, versus wild type
B1 was tested, and the “apparent Km for PAPS, fold higher than the wild type enzyme” value was “comparable to those of the wild type SULT1E1 enzyme”.
In the case of B3, the “apparent Km for PAPS, fold higher than the wild type enzyme” value is reported as ~2.8 fold.
B2 was tested, and the “apparent Km for PAPS, fold higher than the wild type enzyme” value was 3.3 fold.

Same assay, conditions: estradiol as substrate, versus wild type
With B1 the “apparent Km for estradiol, fold higher than the wild type enzyme” value was “comparable to those of the wild type SULT1E1 enzyme”.
With B3 the “apparent Km for estradiol, fold higher than the wild type enzyme” value was “approximately 2.5 fold”.
In the case of B2, the “apparent Km for estradiol, fold higher than the wild type enzyme” value is reported as 6 fold.
